Laboratory results published in paper PMC10899256.

Target: TBC1D23 co-precipitated with GFP-tagged LKB1 (Fig. 8a) (UniProt Q9NUY8)
Assay: co-immunoprecipitation (GFP beads) from HEK293T cells, densitometry
Conditions: parent: est. 1.0; read off a plot

TBC1D23 co-precipitated with GFP-tagged LKB1 (Fig. 8a), sequence (Q9NUY8 whole entry): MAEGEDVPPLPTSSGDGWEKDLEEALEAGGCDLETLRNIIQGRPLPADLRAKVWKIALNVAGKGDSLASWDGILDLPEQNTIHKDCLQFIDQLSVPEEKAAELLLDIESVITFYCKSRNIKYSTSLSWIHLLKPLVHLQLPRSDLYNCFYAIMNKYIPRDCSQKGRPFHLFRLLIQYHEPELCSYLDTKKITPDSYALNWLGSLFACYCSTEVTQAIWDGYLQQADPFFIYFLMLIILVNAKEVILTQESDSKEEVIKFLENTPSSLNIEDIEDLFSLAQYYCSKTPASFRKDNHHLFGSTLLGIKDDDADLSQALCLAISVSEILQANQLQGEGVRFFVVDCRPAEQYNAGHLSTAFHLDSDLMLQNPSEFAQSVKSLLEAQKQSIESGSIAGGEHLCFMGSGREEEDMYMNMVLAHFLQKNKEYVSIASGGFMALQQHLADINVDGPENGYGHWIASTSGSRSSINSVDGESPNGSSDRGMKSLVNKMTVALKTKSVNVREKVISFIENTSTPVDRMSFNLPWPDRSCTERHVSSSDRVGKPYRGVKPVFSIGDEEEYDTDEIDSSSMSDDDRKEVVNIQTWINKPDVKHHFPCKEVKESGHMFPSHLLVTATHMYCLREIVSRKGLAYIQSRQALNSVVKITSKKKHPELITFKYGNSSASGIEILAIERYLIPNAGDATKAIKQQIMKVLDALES

| ratio to parent | Substance |
| --- | --- |
| 0.75 | GFP-LKB1 CRD F354A |
| 0.82 | GFP-LKB1 CRD F354L |
